Results published in US20190106460A1 (published 2019).
Starred links: 1 amine or outer side, 2 acyl side, 3 side chain; linkers in the order of their positions; H or OH if unused. Non-standard residues stand in square brackets, D forms with d. No end group written: not given here. *: point of attachment. Tyr(Me) = O-methyl-L-tyrosine, COc1ccc(C[C@H](N[*:1])C(=O)[*:2])cc1; Phe(4-NO2) = N[C@@H](Cc1ccc([N+](=O)[O-])cc1)C(=O)O; 2,4,6‑trimethylbenzoyl = Cc1cc(C)c(C(=O)*)c(C)c1; Benzenesulfonyl(4-OMe) = COc1ccc(S(=O)(=O)*)cc1; Benzoyl(4-tBu) = CC(C)(C)c1ccc(C(=O)*)cc1; Phe(3-F) = N[C@@H](Cc1cccc(F)c1)C(=O)O; Phe(4-F) = N[C@@H](Cc1ccc(F)cc1)C(=O)O; 1Nal = N[C@@H](Cc1cccc2ccccc12)C(=O)O; Phe(2-F) = N[C@@H](Cc1ccccc1F)C(=O)O; Maleoyl = O=C(/C=C\C(=O)[*:2])[*:1]; Benzoyl(4-Br) = O=C(c1ccc(Br)cc1)*; 2Naphthoyl = O=C(c1ccc2ccccc2c1)*; Benzoyl(4-Me) = Cc1ccc(C(=O)*)cc1; pS = N[C@@H](COP(=O)(O)O)C(=O)O; Suc = O=C(CCC(=O)[*:2])[*:1]; Hexanoyl = CCCCCC(=O)*; Bz = O=C(c1ccccc1)*; Ahx = NCCCCCC(=O)O

Key:
[1] = biological target: T1, Beta Transducin repeat-containing protein (βTrCP), tag cleaved and complexed with Skp1 (UniProt Q9Y297 175-605; P63208 1-163); assay: FP competition dose-response, fluorescein-IkB peptide tracer on βTrCP/Skp1 (average Ki; assay not given)
T1 construct: the FP protocol says that Ki is determined from FP dose-response curves; also called βTrCP/Skp1
T1 sequence (Q9Y297 175-605, chain 1 of 2): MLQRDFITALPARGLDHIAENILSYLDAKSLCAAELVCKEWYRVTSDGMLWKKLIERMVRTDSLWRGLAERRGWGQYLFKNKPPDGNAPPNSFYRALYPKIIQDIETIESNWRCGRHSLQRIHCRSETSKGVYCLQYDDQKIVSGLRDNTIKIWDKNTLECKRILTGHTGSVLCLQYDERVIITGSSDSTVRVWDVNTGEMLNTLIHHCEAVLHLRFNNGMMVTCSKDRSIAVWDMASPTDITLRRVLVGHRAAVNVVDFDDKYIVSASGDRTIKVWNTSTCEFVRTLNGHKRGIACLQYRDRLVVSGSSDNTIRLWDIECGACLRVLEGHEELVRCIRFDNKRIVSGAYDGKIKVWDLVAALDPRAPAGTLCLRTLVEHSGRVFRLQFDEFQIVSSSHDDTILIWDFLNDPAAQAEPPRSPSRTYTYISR
T1 sequence (P63208 whole entry, chain 2 of 2): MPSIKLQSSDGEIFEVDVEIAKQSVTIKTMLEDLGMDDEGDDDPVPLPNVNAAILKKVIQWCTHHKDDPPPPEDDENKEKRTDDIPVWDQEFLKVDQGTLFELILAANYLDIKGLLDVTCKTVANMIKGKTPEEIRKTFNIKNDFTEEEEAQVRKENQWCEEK

Fbw7 = Fbw7 (UniProt Q969H0 263-707, limits assumed); assay: cell-based or functional assay
Fbw7, sequence (Q969H0 263-707 limits assumed): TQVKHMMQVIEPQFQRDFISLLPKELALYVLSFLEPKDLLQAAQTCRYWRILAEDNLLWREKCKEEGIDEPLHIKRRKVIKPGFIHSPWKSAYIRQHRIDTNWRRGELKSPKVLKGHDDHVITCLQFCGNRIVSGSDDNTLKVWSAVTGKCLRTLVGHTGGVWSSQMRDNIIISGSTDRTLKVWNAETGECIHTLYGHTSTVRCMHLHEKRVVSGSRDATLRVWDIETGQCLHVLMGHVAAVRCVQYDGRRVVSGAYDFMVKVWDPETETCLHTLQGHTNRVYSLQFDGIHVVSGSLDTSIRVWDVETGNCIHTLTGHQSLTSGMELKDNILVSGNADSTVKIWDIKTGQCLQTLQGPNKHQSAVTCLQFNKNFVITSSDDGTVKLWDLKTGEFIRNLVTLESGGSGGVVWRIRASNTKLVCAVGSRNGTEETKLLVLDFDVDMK

Skp2 = Skp2 (UniProt Q13309 1-424, limits assumed); assay: cell-based or functional assay
Skp2, sequence (Q13309 whole entry): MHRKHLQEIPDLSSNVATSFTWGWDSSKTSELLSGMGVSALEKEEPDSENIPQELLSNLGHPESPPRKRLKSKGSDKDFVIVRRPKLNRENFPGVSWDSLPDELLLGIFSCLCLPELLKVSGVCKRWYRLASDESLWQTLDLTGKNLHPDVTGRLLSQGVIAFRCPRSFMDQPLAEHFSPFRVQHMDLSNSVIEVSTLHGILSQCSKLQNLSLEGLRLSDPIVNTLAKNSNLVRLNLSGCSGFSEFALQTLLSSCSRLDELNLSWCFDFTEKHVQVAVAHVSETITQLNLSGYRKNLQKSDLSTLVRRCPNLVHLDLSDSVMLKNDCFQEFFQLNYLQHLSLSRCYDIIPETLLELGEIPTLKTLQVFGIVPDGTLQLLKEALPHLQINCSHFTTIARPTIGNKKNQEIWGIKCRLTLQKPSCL

Binder	Ki [1] [nM]	% Inhibition Fbw7 @ 10 µM (Fbw7) [%]	% Inhibition Fbw7 @ (100 µM) (Fbw7) [%]	% Inhibition Skp2 @ 10 µM (Skp2) [%]	% Inhibition Skp2 @ (100 µM) (Skp2) [%]
{4‑i‑Pr‑PhSO2}-[dD]EG[Phe(3-F)]WE-NH2 (also called UBP040) [4-i-Pr-PhSO2-dEGF(3F)WE-NH2]	1.6	–	–	–	–
Suc-EG[Phe(3-F)][Phe(4-NO2)]E-NH2 (SMILES NC(=O)[C@H](CCC(=O)O)NC(=O)[C@H](Cc1ccc([N+](=O)[O-])cc1)NC(=O)[C@H](Cc1cccc(F)c1)NC(=O)CNC(=O)[C@H](CCC(=O)O)NC(=O)CCC(=O)O) [Suc-EGF(3F)F(4NO2)E-NH2]	–	0	2	0	3
Maleoyl-EG[Phe(3-F)][Phe(4-NO2)]E-NH2 (SMILES NC(=O)[C@H](CCC(=O)O)NC(=O)[C@H](Cc1ccc([N+](=O)[O-])cc1)NC(=O)[C@H](Cc1cccc(F)c1)NC(=O)CNC(=O)[C@H](CCC(=O)O)NC(=O)/C=C\C(=O)O) [Mal-EGF(3F)F(4NO2)E-NH2]	–	0	18	0	14
Suc-EG[Phe(4-NO2)][1Nal]E-NH2 (SMILES NC(=O)[C@H](CCC(=O)O)NC(=O)[C@H](Cc1cccc2ccccc12)NC(=O)[C@H](Cc1ccc([N+](=O)[O-])cc1)NC(=O)CNC(=O)[C@H](CCC(=O)O)NC(=O)CCC(=O)O) [Suc-EGF(4NO2)1NalE-NH2]	–	14	28	12	6
{Benzenesulfonyl(4-OMe)}-[dD]EG[Phe(3-F)]WE[Ahx]K(Hexanoyl)-NH2 (also called UBP063) [4-(MeO)PhSO2-dEGF(3F)WE-Ahx-K(NHCO-(CH2)4CH3)-NH2]	5.37	–	–	–	–
{Benzenesulfonyl(4-OMe)}-[dD]EG[Phe(3-F)]WE[Ahx]K(phenylcarbamoyl)-NH2 [4-(MeO)PhSO2-dEGF(3F)WE-Ahx-K(NHCONH-Ph)-NH2]	5.61	–	–	–	–
{Benzenesulfonyl(4-OMe)}-[dD]EG[Phe(3-F)]WE[Ahx]K(phenylsulfonyl)-NH2 (also called UBP073) [4-(MeO)PhSO2-dEGF(3F)WE-Ahx-K(NHSO2Ph)-NH2]	13	–	–	–	–
{Benzenesulfonyl(4-OMe)}-[dD]EG[Phe(3-F)]WE[Ahx]K(2Naphthoyl)-NH2 (also called UBP055) [4-(MeO)PhSO2-dEGF(3F)WE-Ahx-K(NHCO-2-Naph)-NH2]	1.85	–	–	–	–
Suc-EGY[Phe(4-NO2)]E-NH2 (SMILES NC(=O)[C@H](CCC(=O)O)NC(=O)[C@H](Cc1ccc([N+](=O)[O-])cc1)NC(=O)[C@H](Cc1ccc(O)cc1)NC(=O)CNC(=O)[C@H](CCC(=O)O)NC(=O)CCC(=O)O) [Suc-EGYF(4NO2)E-NH2]	–	0	0	11	31
{Benzenesulfonyl(4-OMe)}-[dD]EG[Phe(3-F)]WE[Ahx]K(4‑chlorobenzoyl)-NH2 (also called UBP060) [4-(MeO)PhSO2-dEGF(3F)WE-Ahx-K(NHCO-(4-(Cl)-Ph))-NH2]	3.64	–	–	–	–
{Benzenesulfonyl(4-OMe)}-[dD]EG[Phe(3-F)]WE[Ahx]K(4‑(dimethylamino)benzoyl)-NH2 (also called UBP071) [4-(MeO)PhSO2 dEGF(3F)WE-Ahx-K(NHCO-(4-(Me2N)-Ph))-NH2]	9.51	–	–	–	–
Suc-EG[Phe(2-F)][Tyr(Me)]E-NH2 (SMILES COc1ccc(C[C@H](NC(=O)[C@H](Cc2ccccc2F)NC(=O)CNC(=O)[C@H](CCC(=O)O)NC(=O)CCC(=O)O)C(=O)N[C@@H](CCC(=O)O)C(N)=O)cc1) [Suc-EGF(2F)Y(Me)E-NH2]	–	0	4	0	4
Suc-EGY[1Nal]E-NH2 [Suc-EGY1NalE-NH2]	–	1	5	0	6
QGXXE (N-terminal Suc (succinyl) cap; position 3 F(3F); position 4 F(4NO2); C-terminal amide) [Suc-QGF(3F)F(4NO2)E-NH2]	–	0	0	0	0
{Benzenesulfonyl(4-OMe)}-[dD]EG[Phe(3-F)]WE[Ahx]K(Benzoyl(4-Br))-NH2 (also called UBP058) [4-(MeO)PhSO2-dEGF(3F)WE-Ahx-K(NHCO-(4-(Br)-Ph))-NH2]	3.35	–	–	–	–
{Benzenesulfonyl(4-OMe)}-[dD]EG[Phe(3-F)]WE[Ahx]K(Benzoyl(4-Me))-NH2 (also called UBP057) [4-(MeO)PhSO2-dEGF(3F)WE-Ahx-K(NHCO-(4-(ME)-Ph))-NH2]	2.88	–	–	–	–
Suc-EG[Phe(4-F)][Phe(4-NO2)]E-NH2 (SMILES NC(=O)[C@H](CCC(=O)O)NC(=O)[C@H](Cc1ccc([N+](=O)[O-])cc1)NC(=O)[C@H](Cc1ccc(F)cc1)NC(=O)CNC(=O)[C@H](CCC(=O)O)NC(=O)CCC(=O)O) [Suc-EGF(4F)F(4NO2)E-NH2]	–	0	0	0	0

Binder	Ki [1] [nM]	% Inhibition Fbw7 @ 10 µM (Fbw7) [%]	% Inhibition Fbw7 @ (100 µM) (Fbw7) [%]	% Inhibition Skp2 @ 10 µM (Skp2) [%]	% Inhibition Skp2 @ (100 µM) (Skp2) [%]
{Benzenesulfonyl(4-OMe)}-[dD]EG[Phe(3-F)]WE[Ahx]K(Benzoyl(4-tBu))-NH2 (also called UBP054) [4-(MeO)PhSO2-dEGF(3F)WE-Ahx-K(NHCO-(4-(t-Bu-Ph))-NH2]	1.94	–	–	–	–
{Benzenesulfonyl(4-OMe)}-[dD]EG[Phe(3-F)]WE[Ahx]K(4‑bromophenylsulfonyl)-NH2 (also called UBP059) [4-(MeO)PhSO2-dEGF(3F)WE-Ahx-K(NHSO2-(4-(Br)-Ph))-NH2]	2.96	–	–	–	–
{Benzenesulfonyl(4-OMe)}-[dD]EG[Phe(3-F)]WE-NH2 (SMILES COc1ccc(S(=O)(=O)N[C@H](CC(=O)O)C(=O)N[C@@H](CCC(=O)O)C(=O)NCC(=O)N[C@@H](Cc2cccc(F)c2)C(=O)N[C@@H](Cc2c[nH]c3ccccc23)C(=O)N[C@@H](CCC(=O)O)C(N)=O)cc1, also called UBP022) [4-(MeO)PhSO2-dEGF(3F)WE-NH2]	5.78	–	–	–	–
{Benzenesulfonyl(4-OMe)}-[dD]EG[Phe(3-F)]WE[Ahx]K(Bz)-NH2 (also called UBP061) [4-(MeO)PhSO2-dEGF(3F)WE-Ahx-K(NHCOPh)-NH2]	3.1	–	–	–	–
{Benzenesulfonyl(4-OMe)}-[dD]EG[Phe(3-F)]WE[Ahx]K(4‑n‑propylphenylsulfonyl)-NH2 (also called UBP074) [4-(MeO)PhSO2-dEGF(3F)WE-Ahx-K(NHSO2-(4-(n-Pr)-Ph)-NH2]	28.6	–	–	–	–
{Benzenesulfonyl(4-OMe)}-[dD]EG[Phe(3-F)]WE[Ahx]K-NH2 (not fully specified (residue 8); printed as 4-(MeO)PhSO2-dEGF(3F)WE-Ahx-K(NHCO-CH2CH2Ch(CH3)2)-NH2, also called UBP068) [4-(MeO)PhSO2-dEGF(3F)WE-Ahx-K(NHCO-CH2CH2Ch(CH3)2)-NH2]	5.38	–	–	–	–
{Benzenesulfonyl(4-OMe)}-[dD]EG[Phe(3-F)]WE[Ahx]K(4‑methoxybenzoyl)-NH2 (also called UBP066) [4-(MeO)PhSO2-dEGF(3F)WE-Ahx-K(NHCO-(4-(OMe)-Ph))-NH2]	5.17	–	–	–	–
Suc-EG[Phe(3-F)][1Nal]E-NH2 [Suc-EGF(3F)1NalE-NH2]	–	3	0	0	12
D[pS]GIFE-NH2 (N-terminus assumed; SMILES CC[C@H](C)[C@H](NC(=O)CNC(=O)[C@H](COP(=O)(O)O)NC(=O)[C@@H](N)CC(=O)O)C(=O)N[C@@H](Cc1ccccc1)C(=O)N[C@@H](CCC(=O)O)C(N)=O) [DpSGIFE-NH2]	–	0	0	8	13
{Benzenesulfonyl(4-OMe)}-[dD]EG[Phe(3-F)]WE[Ahx]K(4‑isopropylphenylsulfonyl)-NH2 (also called UBP072) [4-(MeO)PhSO2-dEGF(3F)WE-Ahx-K(NHSO2-(4-i-Pr)-Ph))-NH2]	12.9	–	–	–	–
{Benzenesulfonyl(4-OMe)}-[dD]EG[Phe(3-F)]WE[Ahx]K(1‑naphthyloxycarbonyl)-NH2 (also called UBP069) [4-(MeO)PhSO2-dEGF(3F)WE-Ahx-K(NHOCO-1-Naph)-NH2]	11.6	–	–	–	–
{Benzenesulfonyl(4-OMe)}-[dD]EG[Phe(3-F)]WE[Ahx]K(4‑(trifluoromethyl)benzoyl)-NH2 (also called UBP064) [4-(MeO)PhSO2-dEGF(3F)WE-Ahx-K(NHCO-(4-(CF3)-Ph))-NH2]	6.39	–	–	–	–
{Benzenesulfonyl(4-OMe)}-[dD]EG[Phe(3-F)]WE[Ahx]K(3,5‑dichlorobenzoyl)-NH2 (also called UBP062) [4-(MeO)PhSO2-dEGF(3F)WE-Ahx-K(NHCO-(3,5-(Cl)2-Ph))-NH2]	6.23	–	–	–	–
Suc-EG[Phe(2-F)][Phe(4-NO2)]E-NH2 (SMILES NC(=O)[C@H](CCC(=O)O)NC(=O)[C@H](Cc1ccc([N+](=O)[O-])cc1)NC(=O)[C@H](Cc1ccccc1F)NC(=O)CNC(=O)[C@H](CCC(=O)O)NC(=O)CCC(=O)O) [Suc-EGF(2F)F(4NO2)E-NH2]	–	0	0	8	11
{Benzenesulfonyl(4-OMe)}-[dD]EG[Phe(3-F)]WE[Ahx]K-NH2 (not fully specified (residue 8); printed as 4-(MeO)PhSO2-dEGF(3F)WE-Ahx-K(NHCO-Ph)-NH2, also called UBP065) [4-(MeO)PhSO2-dEGF(3F)WE-Ahx-K(NHCO-Ph)-NH2]	5.94	–	–	–	–
{Benzenesulfonyl(4-OMe)}-[dD]EG[Phe(3-F)]WE[Ahx]K(2,4,6‑trimethylbenzoyl)-NH2 (also called UBP056) [4-(MeO)PhSO2-dEGF(3F)WE-Ahx-K(NHCO-(2,4,6-(Me)3-Ph))-NH2]	3.39	–	–	–	–
{4‑Pr‑PhSO2}-[dD]EG[Phe(3-F)]WE-NH2 (also called UBP041) [4-Pr-PhSO2-dEGF(3F)WE-NH2]	1.77	–	–	–	–
